Earlier results, collected in paper PMC7289715.

Biological target: Spike protein (SARS-CoV-2) (UniProt P0DTC2)

For CD147 (from UniProt P35613), the Kd is listed as 185 nM.
